Reference: publication PMC5861120, “Architecture of the Saccharomyces cerevisiae NuA4/TIP60 complex” (Nature Communications, 2018)
Values belong to the binder of their own block, whether it stands above or below them.

Key:
[1] = molecular target: T1, Recombinant His-tagged Tra1 (3200–3744) (S. cerevisiae, UniProt P38811 3200-3744); assay: pull-down; 300–600 ng GST-tagged Eaf1 fragments immobilised on glutathione sepharose, incubated with purified native TINTIN or His-tagged Tra1 (3200–3744) for 3–4 h at 4 °C; binding buffer 25 mM HEPES pH 7.5, 100 mM NaCl, 10% glycerol, 0.1% Tween-20; western blotting (anti-TAP, anti-Eaf3, anti-His); conditions: both partners purified
T1 construct: Tra1, S. cerevisiae, residues 3200–3744 (FRB-PI3K-FATC); also called recombinant Tra1 C-terminus (FRB-PI3K-FATC); source: recombinant, bacterial culture, purified (Ni-NTA, eluted with imidazole)
T1 sequence (looked up): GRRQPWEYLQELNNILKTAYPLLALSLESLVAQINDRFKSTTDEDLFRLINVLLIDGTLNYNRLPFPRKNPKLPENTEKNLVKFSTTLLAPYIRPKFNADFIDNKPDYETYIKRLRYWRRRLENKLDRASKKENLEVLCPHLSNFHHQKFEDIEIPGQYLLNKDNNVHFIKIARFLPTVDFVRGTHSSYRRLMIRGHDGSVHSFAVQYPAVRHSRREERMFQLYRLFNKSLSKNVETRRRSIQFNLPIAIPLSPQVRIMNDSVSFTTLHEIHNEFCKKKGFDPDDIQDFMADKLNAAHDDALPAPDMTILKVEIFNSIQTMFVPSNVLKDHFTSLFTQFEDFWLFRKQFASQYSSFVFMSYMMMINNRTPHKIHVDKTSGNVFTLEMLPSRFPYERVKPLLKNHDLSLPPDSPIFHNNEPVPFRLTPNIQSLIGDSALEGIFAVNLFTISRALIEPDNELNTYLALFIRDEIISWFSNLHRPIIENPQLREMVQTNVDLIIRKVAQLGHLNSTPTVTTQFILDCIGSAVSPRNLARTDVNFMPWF

[2] = molecular target: T2, Purified native TINTIN (Eaf5-Eaf7-Eaf3) (S. cerevisiae, UniProt P39995 1-279; P53911 1-425; Q12432 1-401); assay: as above; conditions: both partners purified
T2 construct: Eaf5, S. cerevisiae; Eaf7, S. cerevisiae; Eaf3, S. cerevisiae; The pull-down blots used anti-TAP and anti-Eaf3, so one subunit probably carries a TAP tag or its remnant; also called TINTIN subcomplex; source: purified native TINTIN; copies: + +
T2 sequence (looked up) 1: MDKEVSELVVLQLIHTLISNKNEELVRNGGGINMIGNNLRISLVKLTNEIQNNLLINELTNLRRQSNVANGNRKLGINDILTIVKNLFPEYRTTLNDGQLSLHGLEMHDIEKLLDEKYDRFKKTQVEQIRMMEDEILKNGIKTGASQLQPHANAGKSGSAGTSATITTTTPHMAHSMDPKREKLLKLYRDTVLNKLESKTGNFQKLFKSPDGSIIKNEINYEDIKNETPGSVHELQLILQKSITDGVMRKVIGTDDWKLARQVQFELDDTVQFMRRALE
T2 sequence (looked up) 2: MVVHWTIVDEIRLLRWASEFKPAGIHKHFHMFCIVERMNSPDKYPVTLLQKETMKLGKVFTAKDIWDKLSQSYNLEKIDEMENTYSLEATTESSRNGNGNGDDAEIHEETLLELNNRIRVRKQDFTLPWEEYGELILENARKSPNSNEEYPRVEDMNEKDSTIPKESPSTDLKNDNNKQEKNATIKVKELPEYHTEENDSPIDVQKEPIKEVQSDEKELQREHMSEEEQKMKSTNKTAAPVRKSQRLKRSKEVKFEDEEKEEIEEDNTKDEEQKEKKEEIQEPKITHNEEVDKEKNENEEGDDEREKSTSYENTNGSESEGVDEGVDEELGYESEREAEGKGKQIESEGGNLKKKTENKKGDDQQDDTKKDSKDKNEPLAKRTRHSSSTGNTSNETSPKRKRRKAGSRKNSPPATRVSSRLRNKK
T2 sequence (looked up) 3: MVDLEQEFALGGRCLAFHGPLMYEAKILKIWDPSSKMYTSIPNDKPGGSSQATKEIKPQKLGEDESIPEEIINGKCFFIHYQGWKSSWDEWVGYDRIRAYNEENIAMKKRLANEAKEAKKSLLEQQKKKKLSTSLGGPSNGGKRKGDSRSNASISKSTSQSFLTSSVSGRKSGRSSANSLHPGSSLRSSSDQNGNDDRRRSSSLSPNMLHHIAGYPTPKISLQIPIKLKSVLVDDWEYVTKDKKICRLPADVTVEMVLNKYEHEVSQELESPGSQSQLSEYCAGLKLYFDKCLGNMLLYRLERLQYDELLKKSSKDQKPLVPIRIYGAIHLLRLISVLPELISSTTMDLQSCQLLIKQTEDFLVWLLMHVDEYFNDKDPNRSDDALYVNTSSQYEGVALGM

binding result [1]: binds
B1: GST-tagged Eaf1 (536–982) (domain or fragment, S. cerevisiae, UniProt Q06337 536-982, looked up)
chain: KKELAPPFKLSIFVDELNTFEKTLIQDLPLYNGINEERPKKDDSLPFIPISKSVVSLDDNGFYKLLERQLIDEEPSISQLSKRRGMFYGNRRNHYLRPPAVPSLRYLQNRTPTIWLSEDDQELVKNINTYGYNWELISAHMTHRLTYSYLSNIERRTPWQCFERFVQLNERFNFSDLKGPRAHSAQQWLIEAHKFQQRQNRRISPLGVNTESIQRGHRRLRWASMFEAIRKCMKKRENTPRPNPTQPRKPLDCKNMKVPTPAEMSLLKAQRDEALRRDIQLRRTVKNRLQQRQQQSQQAHSSRAQSPIPSNGKSSSNLARNGQASAPRPNQKQYTEQDIIESYSRKLLEQKPDIGPEMALKAAKNYYRTLREQQQQLKQHQIQQQRQQLQEESSHVQQLQQLQPGSQAPPPKSSPSQSSLSNISNINSAPRIKSPTPQEILQRFQKQ
notes: also called Eaf1 C-terminal half; C-terminal region of Eaf1; source: recombinant, bacterial culture, held on glutathione sepharose beads

binding result [2]: binds
B2: GST-tagged Eaf1 (1–530) (domain or fragment, S. cerevisiae, UniProt Q06337 1-530, looked up)
chain: MSSRPSSAVPNSASLSEDQSSDRSKFPKADDLIDERDRKLTELYCVSRLNQLLELTDENKLRKEIDAFLKKNDIRRGIRFDEASLPKLLHTAATPITKKKLKDVNLINVPNQRLSDSKMSRELPENSENVSVKSESHFVPSHDNSIRENMMDSLRPAEKTGGMWNKRPLESTMGGEEERHEKRQKMQSQSLESSNNSEMASLPISPRPPVPNALAHYTYYENIEYPPADPTEVQPAVKFKDPLIKNIMAKEIDTSDHYNENNVDALETVFLLMNDYIPSKIPQALPLAELKYMSQTLPLINLIPRAHKALTTNIINNALNEARITVVGSRIEELRRLGLWSLRQPKRFIDPWKQHNTHQNILLEEAKWMQADFKEGHKYKVAICTAMAQAIKDYWTYGEICCVKRKTLLPGKENKLSDDGRISEKSGRPSDTSRNDSDISIAGKDDIGIIANVDDITEKESAAANDNDENGKNEAGAKSDFDFADGLLSQEGAHDQIISSIDTKLLLKKPSSSSEVVLIQHEVAASSALI
notes: also called Eaf1 N-terminal half; N-terminal portion of Eaf1; source: recombinant, bacterial culture, held on glutathione sepharose beads
